According to article PMC12190498, “Improving the Catalytic Activity and Thermostability of FAST-PETase with a Multifunctional Short Peptide” (Biomolecules, 2025):

Substrate: CCCC(=O)Oc1ccc([N+](=O)[O-])cc1
Experiment: purified protein
Assay type: biochemical, Pseudideonella sakaiensis
[1] = 50 mM potassium phosphate pH 7.5, 50°C or 55°C (50°C is the optimum of this enzyme)
[2] = 50 mM potassium phosphate pH 7.5, 50°C or 55°C (55°C is the optimum of this enzyme)

B1: FAST-PETase (Pseudideonella sakaiensis; D186H/N233K/R224Q/R280A/S121E) (protein)
chain: QTNPYARGPNPTAASLEASAGPFTVRSFTVSRPSGYGAGTVYYPTNAGGTVGAIAIVPGYTARQSSIKWWGPRLASHGFVVITIDTNSTLDQPESRSSQQMAALRQVASLNGTSSSPIYGKVDTARMGVMGWSMGGGGSLISAANNPSLKAAAPQAPWHSSTNFSSVTVPTLIFACENDSIAPVNSSALPIYDSMSQNAKQFLEIKGGSHSCANSGNSNQALIGKKGVAWMKRFMDNDTRYSTFACENPNSTAVSDFRTANCS
notes: FAST-PETase, C-terminal 6xHis, pET28a, E. coli Origami 2(DE3), Ni-NTA
[1]
  Km: 880 ± 160 µM
  kcat: 0.724 ± 0.0532 s⁻¹
  kcat/Km: 824 ± 112 M⁻¹ s⁻¹

B2: FAST-PETase-S1v1 (Pseudideonella sakaiensis; D186H/N233K/R224Q/R280A/S121E) (protein)
chain: B1 chain
notes: artificial peptide S1v1 (AEAEAHAH)2 fused to C-terminus via PT-linker …, C-terminal 6xHis, E. coli Origami 2(DE3), Ni-NTA
[2]
  Km: 1220 ± 180 µM
  kcat: 1.36 ± 0.0918 s⁻¹
  kcat/Km: 1110 ± 138 M⁻¹ s⁻¹

B3: S1v1-FAST-PETase (Pseudideonella sakaiensis; D186H/N233K/R224Q/R280A/S121E) (protein)
chain: B1 chain
notes: artificial peptide S1v1 (AEAEAHAH)2 fused to N-terminus via PT-linker …, C-terminal 6xHis, E. coli Origami 2(DE3), Ni-NTA
[2]
  Km: 860 ± 150 µM
  kcat: 0.581 ± 0.0392 s⁻¹
  kcat/Km: 679 ± 72.2 M⁻¹ s⁻¹
